This data set in a line: soluble fraction after stress (log2 fold change); higher = more stays soluble; pooled small domains, quantitative proteomics. To be noted: stress: 75 degC.

The record followed here is the domain aggregation screens of Martell et al. (2025).
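Also: 20 min heating vs room temperature control held 20 min.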

As for “HMVFSKEELLFNSDSLLSLYPNDNKLLETILSEKIDHAVKNNDMSMYKEILVIDPKNPLANYHLLM”, the “soluble fraction (log2)” value was found to be 0.354.
Consider “HMVFTEEERAEYREKMLDAGFDLLKQYGMTHMSVAKITEAAGIGVSTFYNFFSSKEEYVYEVLQYRRRK”, for which the “soluble fraction (log2)” value is -1.3.
On to “HMVGIVQKTFEPTGIAAEELMKTLKSDKSLDFGNVQILATPKSSTSRQVVVVSGRANDVDRVMMVLSNLDS”, for which the “soluble fraction (log2)” value is -0.326.
Under “HMVGKIVVPHLEGKPAEMARDILARDGFKSVHEEVLPSAEFGAGRVVRTEPHAGTNVAKTDPVTIFVSVGL” stands -0.268; under “HMVGLTDLQRNVLVQIARGKSRQLISRTLKVTPAEISAALKVAQRRYRVASSTEVIVQALYDKTLSFHEIM”, -0.707; under “HMVIIPNILNKYKGLAFRQLEQVGLKIGDTIYEPNIQRDAVLRMQINGRSVQPGDQVMRFSVVDLVIG”, -3.2.
With “HMVINKRELNVLSIYSRGSEKRAIILFPTGQTKLVKVGDTLNGGRVAAIGTTEIRYIKGGNNLVLKIPQ” the figure was -2.75; with “HMVINVNEIIRRIKELKTFKTDRQVADFLGVSKATVSNWMARNSIDFPLLINKLDGVDLTWLLTGRGTPE”, -2.15; with “HMVIPATPTARRAKIAGLLADRSVRSQGELLTLLADAGIEVTQATLSRDLEALGAVKVRDGRGLVYAVPG”, -0.32.
Under “HMVIQRQIPPLVTRMLDGLEQFIQLDMPFDLDTRLGNIEAVRANMDRSDVTSAEAYRQVLELYSIELQ” stands -0.559.
As for “HMVISLREINLIGVYGRPNARRALVRLSNGRYVRVEVGSDLDGGKVTAIGDEALNFVKRGRTYAIQLPA”, the “soluble fraction (log2)” value is -1.11.
With “HMVITPESVKEQVLAIISKSPAQGFNYKQISKRLNINDPSERKMVSDILRELSESGTIEEINKGKYRAKV” the figure was 0.186.
With “HMVKDYIQVTVNKEPVILKGKKDYIFIDIFNYIEFDLTIPKGSLYLLLNGKNAGYHDKLLDGDVIELGW”, the “soluble fraction (log2)” value was -2.17.
As for “HMVKLDDLTGQDKASAEAAISNLGLKYSEQQEYSDEIEEGKVTRTDPGAGSTSLKAGDTVTVYISRGPE”, the “soluble fraction (log2)” value stood at 0.905.
Consider “HMVKLSATVKELLDFVIAKKTVTSSNVSKHFDISAQNASGRLKKLHATGLVLGQKEVAESGGLEFVYRS”, for which the “soluble fraction (log2)” value was -0.132.
For the sequence “HMVKLSDGIVEHIKSLIMAGRLKPGDKLPPEREFAATLGVSRTALREAVRTLSLMGLLDARQGEGTFVSG”, the “soluble fraction (log2)” value was -0.135.
Turning to “HMVKPQANTIYKEYIKYRANLQNKNEFLSFSEYAKQKHNLEQMSEIMVDANLKEEMLETLKEMS”, the “soluble fraction (log2)” value was -0.0266.
As to “HMVKSDLVGHRFILVEDVTPKLTPKYHYSGINWKLITTDNLVAGTRVEVIQVDVGKFHIKAIK”, the “soluble fraction (log2)” value is -1.85.
With “HMVKSIDEIYNEAVKSLANEDYDAAKKLFNYLINNFSDPDKFPLSLFWLAEIEFSSSNFDASKNYYMQ” the figure was 0.0365; with “HMVKSSVTEVISMINALPVTVKPEDKADIISARMAYDTLTEDEKALVTNYEILTAAETRFNELIATT”, 0.275; with “HMVKTIINGEEKDFDAQDFQTFGDFLKKVIPEGQILKSLKINSKDVPIAFIDELKSATVDENITIEMELA”, 0.682.
Under “HMVLAEPLSERELDILRLLAAGDSNKEIAAVLYITEGTVKNHVTNILGKLDARDRTQAALRARELGL” stands -1.21; under “HMVLGDQTFQSASAPKVFFGGDAAYGPKNIITAVAHGHDAAVSIDRFLHGEDVSKRPGPQVNLVS”, 0.287; under “HMVLRPDDVEDSLWREWVSHRKAKRAAVTEGVLKTFRQEATKASFTLADAMRKSIDRGWTGFEAEWVARET”, -0.299.
With “HMVLSPAQVRRALMVSGLFTEARVARQLGVPMDLKQILRIILRNTPPQSAMARELESAIDEIESRNAMRD” the figure was -1.7; with “HMVLSTRERMSNILATLKGGHFVNFSDLFTPEEGRLGVVVTFLAMLELIKESLLDIVQHEVLGPIHVKARV”, 0.00479.
For the sequence “HMVLTGTIKKYNNERGFGFISTSNFGDVFFHIKDFQKGEQPIPGREVYFEVVKKENKKRAIHVYYSD”, the “soluble fraction (log2)” value is -1.95.
Regarding “HMVLVSNYGEVVRKARERKGLDHGSLAMKISEKKSIITSVESGNMKPNEKLIKKLENFLNINLM”, the “soluble fraction (log2)” value was -1.69.
Take “HMVMIPDLVGETIEDAKDILEGLGFEVEVRSEFPESDWGRPFARVTSLSPSAGQEVAKGTLVIIRSF”: the “soluble fraction (log2)” value is -1.05.
Under “HMVMLIVMNHTASQADIDKVIEVVSGMGFTAAPIPGGERTAIGVLGNKGYVDDSTIRDLPGVQQAIHVSKP” stands -1.21; under “HMVMSVGENIAYFRKKLGLTQEMLSERIGVTAQAVSKWENGVTNPDISLLPRISEALGIGIGDLFD”, -1.94.
For “HMVNAVKFAIEKMPYKYSSLLTLKYVMGYSGKEIAEITGLSETNVRQQLLKGRKLLESMLEE”, the “soluble fraction (log2)” value is -2.9.
With “HMVNGTPADPYDVLGVESSASPEELRAAWQTLVRQNHPDQLMARGVPLEAVKLAEARLVAINQAWDDLTK” the figure was -0.0568; with “HMVNHVGITVSNLERSIQFYEALTGKKIANQDTIGGKRMAQTQGLADTLIKYANLHLDNLNIDLLEYVE”, -0.92.
Under “HMVNIAVMTVSDTRTEADDKSGSLLVSKIEGDGHVLADRAIITDDVPRIIAKLKEWIESPQVDVVVT” stands -0.0813; under “HMVNINEVEVSRDLAHAKVFVTFVGDRTDEINTQALKVLNAAQGFLRSRIASNNHMRTTPRIHF”, -0.567; under “HMVNIPEIAKKFGKSTSEVFEQIQIGEKHEMEHTNDPKKARKIALDHLSDDMDYYKKLKKLG”, 0.212.
With “HMVNLKQVELREHHPWVGHKIKELDISRHTLIVMIRRGDNAIVPNGDTLIKSGDIVFVFSKR” the figure was -2.76; with “HMVNPHPVYRSWGLLYVEARDGDSLESIAKEFGFSVKKLAKYNEVPKDYPLEAGDIVYLEKKKK”, -1.63; with “HMVNPIDFYLLFRTELQRLAEHPITVDRLTEVTGLNKLQVLDWLKRAEQDGLVKKLNRPTRYQLN”, 0.233.
“HMVPAMGSLTLIKGGVNLRNAPGGLTIAQLDRGLVLSYTKFVQKDGYTWYLVNSPKGTGYVRSDVVQLGS”: the “soluble fraction (log2)” value was -2.58.
For “HMVPDGFDQLTEREYQVAMAVGKGLNNKEIASQLGLGERTVKAHLTTTFEKLHVRDRVQLALIVNRL”, the “soluble fraction (log2)” value is -0.683.
With “HMVPDVVGKDYALAQAELEGANLVVAKGSSRYDDTLPAGVVLATDPKVGTVVKPGAKVTVILSK” the figure was 0.217.
Regarding “HMVPLSMLTEGQIFRGQVLDITSQGIKIQLNPEQILFARLGEQVELNIGQQMAFQVRENKGDQLIIHPMQN”, the “soluble fraction (log2)” value is -0.353.
In the case of “HMVPVQLTPRELQVARLAAHGASSPEIAAELRVSRRTVDNQLGRVYAKLGIAGRAELAAALSRLPVSV”, the “soluble fraction (log2)” value was -1.07.
“HMVPVSIYAYNKIKTAILNNELMPGEKLVEASLAETLNMSRTPIREALRQLEQEGFVTYYPQKGSIVSH”: the “soluble fraction (log2)” value was -1.25.
In the case of “HMVQAQGARIREARVQRGLSQAQLGEPRYSGSYISHIENGRRSPGTDVLAFIAARLGLEPGALDS”, the “soluble fraction (log2)” value was -0.978.
For “HMVQIFIPVVHDDHWFLIVFSREEDTFYVLDSLPSLSRISTINGIISTLKEHLQQASVGPQYSVKVLPVK”, the “soluble fraction (log2)” value turned out to be 0.226.
In the case of “HMVQLAEGERYRRIQEANDFINRQQWPGKAAMGRLKDTEKAQYNLWLDYLDALEAVDTSSAPKINWPVPPE”, the “soluble fraction (log2)” value was 0.2.
As to “HMVQQAVNMAKPGKLFTGPSPTSKALRDLDAGAMLYPTGEKQGPFWKVQDELGNEGWVAMGLLQLA”, the “soluble fraction (log2)” value was -0.0352.
With “HMVQVDNELTEFSVQSITRGIDALGEVTIRVTAPDGGVYTGRGADNDIIVSSTKAYLNALNRLLNDK” the figure was 0.0321.
As to “HMVQYVDFVKRMIEELPWWHRRMLELKYLDGLTYEEIADELQVPVGTVKGTLHRAKELFQEILKNN”, the “soluble fraction (log2)” value is -3.29.
With “HMVRDPYELLEVPREATPDEIKSAFRKLAARHHPDRNPDDPGAQERFKEINAAYQLLSDPQKRAMFDRFGA” the figure was 0.159.
As to “HMVRKIQAKLVLRLHAQGLSGRAIARSQGMSRRSVSDVLDAARAVGVGWDDVTGKTDGEVYALLFPGRG”, the “soluble fraction (log2)” value is -2.66.
For the sequence “HMVRKIRARLVLQLRAEGLSGRAIAGSQGMSRKSVTAVLDAADRAGIGWDEIAERSEGEVYALLFPGRG”, the “soluble fraction (log2)” value is -1.46.
Under “HMVRQKYKSNFITVGDKSLTIHDWAQRLNLSQYALRNRYKEFGKEWVEKAIKTILETGDNTHIYK” stands -1.46.
Under “HMVRSLADQVYERLRRNIVSGDLAPNARIVELDIAAQMGTSQGPVREALQRLEREGLVQRRAHSATFVTD” stands -0.554; under “HMVRVSELAIEPRLVVEETATGFVGAVVRYANGLIELEDRHGAVRTFPLGPGYLVDGRPVSLVKPT”, -0.577.
With “HMVSEDELLARIALLPYPQAKILLEERLSHDPANAKVRQLYLELAKKSGDHTEVTRHNSLLY” the figure was -0.347; with “HMVSKIEAPLPGIILSVDVKEGDTVKAGDKLMVMEAMKMENAILAETNGVVKSIKVKIQDSVLQGDILAEI”, -0.55.
With “HMVSKSDVQRALEKVEPVLRKLGGSTVEKVRVMARQATLVFEMLKSWWKGEIDLPWKTVAAMTVTLLYL”, the “soluble fraction (log2)” value was -0.451.
With “HMVSLNKTEFIAVKKASASELRDKINSLGLDVLKDATISADARTNQIIATGPKYALEQIKMLVVGLDVSS” the figure was -1.4; with “HMVSLRQQVYDYLRSQMNQGELRPGSAINLGEMSSRFGISRTPLREALLQLETEGFVTIYPRKGIIVN”, -1.63; with “HMVSLTGEWRPSKDALDILITKGGINPNFIDDAVPEFILYWRDRGDVSNTWDSKFIQHVRRQWQFYTGI”, -2.87.
Take “HMVSMSFDDYVNDAKEYESEGDKDKAYNSYLEAYKLNKSSEEVLDYLIDNTEDVTLKLNYVYEYLDL”: the “soluble fraction (log2)” value is 0.00966.
Under “HMVSNFEAEFGRHFAIFFPGSEFTELKLRLLEEGAELIDPIRDTPFERFFFKDPNGYIFEVIDKE” stands -2.81; under “HMVSNRMVYSDFQQKWINNQVESINVNADKMTIEVTTQDEKKYTVYAPSSMIEFLNEQYPKDDIKIEYVAP”, 0.153; under “HMVSPLEKSQSFGSFEISREFARTLGLTSARNWENWAASDSRPINIPYSPNVFYKNKGWIDWSDWLGTE”, -0.279.
Under “HMVSRQINVIPDDLAGLRLDQALAHLFPQHSRSRLKEWLLEDIIIVQGGPKRPKDIVSGGEIVEIKL” stands -0.165.
